Assay results: patent US20240209409A1 (AJINOMOTO, published 2024)
Values belong to the binder of their own block, whether it stands above or below them. Where no end group is shown, it is not given here. [ ]: non-standard residue; d: D form. Phe(4-N3) = [N-]=[N+]=Nc1ccc(C[C@H](N)C(=O)O)cc1

Legend:
Met = Met (UniProt P08581 25-1390, limits assumed); assay: cell-based or functional assay
EPOR = biological target: T1, EPOR (UniProt P19235 25-508, limits assumed); assay: cell-based or functional assay
T1 sequence (looked up): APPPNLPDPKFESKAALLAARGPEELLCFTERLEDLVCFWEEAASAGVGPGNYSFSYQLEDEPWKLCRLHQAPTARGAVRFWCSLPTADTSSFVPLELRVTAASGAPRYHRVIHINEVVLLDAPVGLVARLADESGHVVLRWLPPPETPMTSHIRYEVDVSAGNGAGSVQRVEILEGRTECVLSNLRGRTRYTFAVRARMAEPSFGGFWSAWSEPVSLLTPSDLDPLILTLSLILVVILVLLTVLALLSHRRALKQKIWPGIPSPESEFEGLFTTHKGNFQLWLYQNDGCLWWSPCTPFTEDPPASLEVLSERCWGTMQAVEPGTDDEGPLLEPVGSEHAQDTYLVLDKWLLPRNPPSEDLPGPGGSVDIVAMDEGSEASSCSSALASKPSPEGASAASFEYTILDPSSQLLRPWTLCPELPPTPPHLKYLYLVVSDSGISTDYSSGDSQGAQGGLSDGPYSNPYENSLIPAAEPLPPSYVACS

Sequence of Met (P08581 25-1390 limits assumed): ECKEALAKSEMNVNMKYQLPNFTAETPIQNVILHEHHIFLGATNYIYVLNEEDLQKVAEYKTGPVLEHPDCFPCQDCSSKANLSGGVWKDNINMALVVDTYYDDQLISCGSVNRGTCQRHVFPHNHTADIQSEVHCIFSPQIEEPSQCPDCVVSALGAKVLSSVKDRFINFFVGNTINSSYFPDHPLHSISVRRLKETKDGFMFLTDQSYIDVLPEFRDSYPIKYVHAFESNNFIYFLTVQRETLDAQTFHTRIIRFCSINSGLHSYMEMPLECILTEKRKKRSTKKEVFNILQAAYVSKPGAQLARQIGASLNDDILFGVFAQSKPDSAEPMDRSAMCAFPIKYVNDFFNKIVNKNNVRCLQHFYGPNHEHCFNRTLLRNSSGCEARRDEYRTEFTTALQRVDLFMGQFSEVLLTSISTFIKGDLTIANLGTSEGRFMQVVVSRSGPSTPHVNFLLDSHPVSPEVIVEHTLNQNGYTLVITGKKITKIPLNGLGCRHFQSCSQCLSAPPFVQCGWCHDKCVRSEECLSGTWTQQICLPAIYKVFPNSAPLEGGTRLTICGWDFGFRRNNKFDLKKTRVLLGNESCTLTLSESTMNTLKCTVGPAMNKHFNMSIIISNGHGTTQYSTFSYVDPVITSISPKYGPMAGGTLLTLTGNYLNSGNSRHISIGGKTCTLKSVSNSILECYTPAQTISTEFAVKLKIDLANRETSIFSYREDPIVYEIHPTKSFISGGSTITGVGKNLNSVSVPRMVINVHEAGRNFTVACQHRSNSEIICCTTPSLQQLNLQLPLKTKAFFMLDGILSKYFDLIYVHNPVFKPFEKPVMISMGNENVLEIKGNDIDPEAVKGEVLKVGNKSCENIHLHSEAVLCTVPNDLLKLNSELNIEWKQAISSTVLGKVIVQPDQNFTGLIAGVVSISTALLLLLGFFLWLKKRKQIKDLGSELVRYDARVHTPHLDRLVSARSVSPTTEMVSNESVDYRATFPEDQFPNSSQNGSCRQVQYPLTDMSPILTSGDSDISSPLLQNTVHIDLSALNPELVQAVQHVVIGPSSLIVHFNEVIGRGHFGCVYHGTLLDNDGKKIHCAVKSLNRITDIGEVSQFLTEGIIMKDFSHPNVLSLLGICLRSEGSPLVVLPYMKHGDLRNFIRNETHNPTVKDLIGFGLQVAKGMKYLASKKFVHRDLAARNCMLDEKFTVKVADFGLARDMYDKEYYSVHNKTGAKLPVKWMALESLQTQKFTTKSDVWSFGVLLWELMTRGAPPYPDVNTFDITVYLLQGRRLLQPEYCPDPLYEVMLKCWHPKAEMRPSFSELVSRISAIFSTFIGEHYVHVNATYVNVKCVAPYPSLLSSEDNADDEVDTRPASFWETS

reporter activity (SRE reporter, firefly/Renilla luciferase, HEK293 cells, relative to Mock); PEG+ sample (WT treated with m-dPEG24-DBCO, not modified), 2500-fold diluted (Met): > 10 times that of Mock
reporter activity (SRE reporter, firefly/Renilla luciferase, HEK293 cells, relative to Mock); PEG- sample, 2500-fold diluted (Met): > 10 times that of Mock
B1: WT-aMD4dY-PA22 (peptide)
chain: AETCRQFNRRTHEVWNLDCGAAPAAPAPAAPAAPAPAAPAAPGCRQFNRRTHEVWNLDC

reporter activity (SRE reporter, firefly/Renilla luciferase, HEK293 cells, relative to Mock); PEG- sample, 2500-fold diluted (Met): > 10 times that of Mock
B2: L2-AzF-aMD4dY-PA22 (peptide)
chain: AETCRQFNRRTHEVWNLDCGAAPAAPAPAA[Phe(4-N3)]AAPAPAAPAAPGCRQFNRRTHEVWNLDC
modifications: cysteine pairing not given here

reporter activity (SRE reporter, firefly/Renilla luciferase, HEK293 cells, relative to Mock); PEG- sample, 2500-fold diluted (Met): > 10 times that of Mock
B3: N-AzF-aMD4dY-PA22 (peptide)
chain: AET[Phe(4-N3)]CRQFNRRTHEVWNLDCGAAPAAPAPAAPAAPAPAAPAAPGCRQFNRRTHEVWNLDC
modifications: cysteine pairing not given here

reporter activity (PathHunter eXpress EpoR-JAK2 Functional Assay, chemiluminescence relative to Mock); PEG+ sample, 1000-fold diluted (EPOR): > 1.5 times that of Mock
B4: N-AzF-EPO-PA22 PEG-modified using m-dPEG24-DBCO (peptide)
chain: AET[Phe(4-N3)](m‑dPEG24‑DBCO)GGLYACHMGPMTWVCQPLRGAAPAAPAPAAPAAPAPAAPAAPGGLYACHMGPMTWVCQPLRG

reporter activity (SRE reporter, firefly/Renilla luciferase, HEK293 cells, relative to Mock); PEG- sample, 2500-fold diluted (Met): > 10 times that of Mock
B5: L1-AzF-aMD4dY-PA22 (peptide)
chain: AETCRQFNRRTHEVWNLDCGAAPAAPAPAAPA[Phe(4-N3)]APAPAAPAAPGCRQFNRRTHEVWNLDC
modifications: cysteine pairing not given here

reporter activity (PathHunter eXpress EpoR-JAK2 Functional Assay, chemiluminescence relative to Mock); PEG- sample, 1000-fold diluted (EPOR): > 1.5 times that of Mock
B6: L2-AzF-EPO-PA22 (peptide)
chain: AETGGLYACHMGPMTWVCQPLRGAAPAAPAPAA[Phe(4-N3)]AAPAPAAPAAPGGLYACHMGPMTWVCQPLRG

reporter activity (PathHunter eXpress EpoR-JAK2 Functional Assay, chemiluminescence relative to Mock); PEG- sample, 1000-fold diluted (EPOR): > 1.5 times that of Mock
B7: L1-AzF-EPO-PA22 (peptide)
chain: AETGGLYACHMGPMTWVCQPLRGAAPAAPAPAAPA[Phe(4-N3)]APAPAAPAAPGGLYACHMGPMTWVCQPLRG

reporter activity (PathHunter eXpress EpoR-JAK2 Functional Assay, chemiluminescence relative to Mock); PEG+ sample (WT treated with m-dPEG24-DBCO, not modified), 1000-fold diluted (EPOR): > 1.5 times that of Mock
reporter activity (PathHunter eXpress EpoR-JAK2 Functional Assay, chemiluminescence relative to Mock); PEG- sample, 1000-fold diluted (EPOR): > 1.5 times that of Mock
B8: WT-EPO-PA22 (peptide)
chain: AETGGLYACHMGPMTWVCQPLRGAAPAAPAPAAPAAPAPAAPAAPGGLYACHMGPMTWVCQPLRG

reporter activity (SRE reporter, firefly/Renilla luciferase, HEK293 cells, relative to Mock); PEG+ sample, 2500-fold diluted (Met): > 10 times that of Mock
B9: L2-AzF-aMD4dY-PA22 PEG-modified using m-dPEG24-DBCO (peptide)
chain: AETCRQFNRRTHEVWNLDCGAAPAAPAPAA[Phe(4-N3)](m‑dPEG24‑DBCO)AAPAPAAPAAPGCRQFNRRTHEVWNLDC
modifications: cysteine pairing not given here

reporter activity (PathHunter eXpress EpoR-JAK2 Functional Assay, chemiluminescence relative to Mock); PEG- sample, 1000-fold diluted (EPOR): > 1.5 times that of Mock
B10: N-AzF-EPO-PA22 (peptide)
chain: AET[Phe(4-N3)]GGLYACHMGPMTWVCQPLRGAAPAAPAPAAPAAPAPAAPAAPGGLYACHMGPMTWVCQPLRG

reporter activity (SRE reporter, firefly/Renilla luciferase, HEK293 cells, relative to Mock); PEG+ sample, 2500-fold diluted (Met): > 10 times that of Mock
B11: N-AzF-aMD4dY-PA22 PEG-modified using m-dPEG24-DBCO (peptide)
chain: AET[Phe(4-N3)](m‑dPEG24‑DBCO)CRQFNRRTHEVWNLDCGAAPAAPAPAAPAAPAPAAPAAPGCRQFNRRTHEVWNLDC
modifications: cysteine pairing not given here

reporter activity (PathHunter eXpress EpoR-JAK2 Functional Assay, chemiluminescence relative to Mock); PEG+ sample, 1000-fold diluted (EPOR): > 1.5 times that of Mock
B12: L2-AzF-EPO-PA22 PEG-modified using m-dPEG24-DBCO (peptide)
chain: AETGGLYACHMGPMTWVCQPLRGAAPAAPAPAA[Phe(4-N3)](m‑dPEG24‑DBCO)AAPAPAAPAAPGGLYACHMGPMTWVCQPLRG

reporter activity (SRE reporter, firefly/Renilla luciferase, HEK293 cells, relative to Mock); PEG+ sample, 2500-fold diluted (Met): > 10 times that of Mock
B13: L1-AzF-aMD4dY-PA22 PEG-modified using m-dPEG24-DBCO (peptide)
chain: AETCRQFNRRTHEVWNLDCGAAPAAPAPAAPA[Phe(4-N3)](m‑dPEG24‑DBCO)APAPAAPAAPGCRQFNRRTHEVWNLDC
modifications: cysteine pairing not given here

reporter activity (PathHunter eXpress EpoR-JAK2 Functional Assay, chemiluminescence relative to Mock); PEG+ sample, 1000-fold diluted (EPOR): > 1.5 times that of Mock
B14: L1-AzF-EPO-PA22 PEG-modified using m-dPEG24-DBCO (peptide)
chain: AETGGLYACHMGPMTWVCQPLRGAAPAAPAPAAPA[Phe(4-N3)](m‑dPEG24‑DBCO)APAPAAPAAPGGLYACHMGPMTWVCQPLRG
